Data on 1 substance can be found in patent publication US20120129237A1.

This assay deals with LDLR (LDL receptor) of HepG2 cells (UniProt P01130). The assay can be described thus: cell-based or functional assay.

For “PCSK9c polypeptide (novel PCSK9 variant) (from UniProt Q8NBP7 175-692) (enzyme)”, the LDL uptake assay (DiI-LDL, HepG2 cells) (% more function than wildtype PCSK9) was found to be 50.
